# Experimental data: patent US20220177575A1 (MAGENTA THERAPEUTICS, published 2022)
# Biological target: T1, Human CD117 antigen (human, UniProt P10721 26-520)
# T1 construct: also called c-kit; Stem Cell Factor Receptor
# Test: chemical cross-linking, High-Mass MALDI MS and nLC-Orbitrap MS of the complex
# T1 sequence (P10721 other isoform, or with tags, fused parts or gaps limits assumed): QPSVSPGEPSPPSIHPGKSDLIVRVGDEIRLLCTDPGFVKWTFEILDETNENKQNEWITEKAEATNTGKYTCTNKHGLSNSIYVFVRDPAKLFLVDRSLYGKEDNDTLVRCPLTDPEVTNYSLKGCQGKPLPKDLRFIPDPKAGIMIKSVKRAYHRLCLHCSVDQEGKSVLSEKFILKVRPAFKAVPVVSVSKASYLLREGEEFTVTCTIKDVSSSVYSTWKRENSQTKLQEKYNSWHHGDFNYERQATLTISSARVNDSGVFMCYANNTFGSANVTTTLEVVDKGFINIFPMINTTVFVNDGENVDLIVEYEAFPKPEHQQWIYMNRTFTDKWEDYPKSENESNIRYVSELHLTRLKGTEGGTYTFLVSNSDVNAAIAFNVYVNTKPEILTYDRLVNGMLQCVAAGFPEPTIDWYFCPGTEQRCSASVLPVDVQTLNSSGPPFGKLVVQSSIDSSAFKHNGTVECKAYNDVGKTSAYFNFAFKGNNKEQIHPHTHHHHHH
binder,measurement,value
"anti-CD117 antibody 85 (Ab85) (antibody, V domains shown, Human antibody derived from CK6; also called Antibody HC-85/LC-85) VH: EVQLVQSGAEVKKPGESLKISCKGSGYSFTNYWIGWVRQMPGKGLEWMAIINPRDSDTRYRPSFQGQVTISADKSISTAYLQWSSLKASDTAMYYCARHGRGYEGYEGAFDIWGQGTLVTVSS VL: DIQMTQSPSSLSASVGDRVTITCRSSQGIRSDLGWYQQKPGKAPKLLIYDASNLETGVPSRFSGSGSGTDFTLTISSLQPEDFATYYCQQANGFPLTFGGGTKVEIK",binding result,binds
